Source: paper PMC11259706 (The Journal of Biological Chemistry, 2024)

B1: Hsp70 10mer peptide Ac-GSGPTIEEVD-OH [modified: N-terminal acetyl; N-terminal acetyl] [not stated] / protein phosphatase 5 (PP5), human, full-length [human] (parent complex)
chain 1: GSGPTIEEVD
chain 2: MAMAEGERTECAEPPRDEPPADGALKRAEELKTQANDYFKAKDYENAIKFYSQAIELNPSNAIYYGNRSLAYLRTECYGYALGDATRAIELDKKYIKGYYRRAASNMALGKFRAALRDYETVVKVKPHDKDAKMKYQECNKIVKQKAFERAIAGDEHKRSVVDSLDIESMTIEDEYSGPKLEDGKVTISFMKELMQWYKDQKKLHRKCAYQILVQVKEVLSKLSTLVETTLKETEKITVCGDTHGQFYDLLNIFELNGLPSETNPYIFNGDFVDRGSFSVEVILTLFGFKLLYPDHFHLLRGNHETDNMNQIYGFEGEVKAKYTAQMYELFSEVFEWLPLAQCINGKVLIMHGGLFSEDGVTLDDIRKIERNRQPPDSGPMCDLLWSDPQPQNGRSISKRGVSCQFGPDVTKAFLEENNLDYIIRSHEVKAEGYEVAHGGRCVTVFSAPNYCDQMGNKASYIHLQGSDLRPQFHQFTAVPHPNVKPMAYANTLLQLGMM

Variants of: B1
Assay: competition fluorescence polarisation; read at the highest peptide concentration, 100 µM; read off a plot

Variant | response [% tracer bound]
chain 1 GSGPTIEEAD [chain 1 V9A] | ~56
chain 1 GSGPTAEEVD [chain 1 I6A] | ~12
chain 1 GSGPTIAEVD [chain 1 E7A] | ~36
chain 1 GSGPTIEEVA [chain 1 D10A] | ~110
chain 1 E8A | ~74
